PMC8989681, “Functional and structural deficiencies of Gemin5 variants associated with neurological disorders” (Life Science Alliance, 2022)
Residue numbers refer to the chain shown, from its start.

Tests used:
G5_(845-1508)-R1016C-TAP [1] = molecular target: T1, G5_(845-1508)-R1016C-TAP (human, UniProt Q8TEQ6 845-1508, R1016C); test: affinity purification with mass spectrometry; G5_(845-1508)-TAP baits expressed in HEK293; TAP purification, in-gel trypsin digestion, LC-MS/MS, PEAKS; two biological replicates; at least two distinct peptides; settings: partners not purified
T1 construct: Vector pcDNA3-CTAP; source: HEK293, transfected, in soluble cell extract; purified by TAP
T1 sequence (looked up): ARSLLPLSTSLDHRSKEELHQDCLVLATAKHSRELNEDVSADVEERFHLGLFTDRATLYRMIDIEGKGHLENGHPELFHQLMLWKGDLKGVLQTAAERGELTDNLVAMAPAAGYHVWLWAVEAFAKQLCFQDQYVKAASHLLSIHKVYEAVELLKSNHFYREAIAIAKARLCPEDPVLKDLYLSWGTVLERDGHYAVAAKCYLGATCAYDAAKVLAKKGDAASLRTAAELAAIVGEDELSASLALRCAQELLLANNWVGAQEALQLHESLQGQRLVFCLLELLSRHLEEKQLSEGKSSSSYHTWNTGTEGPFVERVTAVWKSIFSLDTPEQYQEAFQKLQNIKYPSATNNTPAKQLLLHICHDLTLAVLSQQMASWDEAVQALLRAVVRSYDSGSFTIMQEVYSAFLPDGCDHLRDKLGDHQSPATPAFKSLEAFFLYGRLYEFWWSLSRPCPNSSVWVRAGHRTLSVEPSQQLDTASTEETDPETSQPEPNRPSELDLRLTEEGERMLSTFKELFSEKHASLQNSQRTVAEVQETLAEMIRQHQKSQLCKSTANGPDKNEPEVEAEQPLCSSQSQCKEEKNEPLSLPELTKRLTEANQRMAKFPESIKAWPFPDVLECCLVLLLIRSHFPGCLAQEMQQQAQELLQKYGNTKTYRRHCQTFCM

G5_(845-1508)-D1019E-TAP [2] = molecular target: T2, G5_(845-1508)-D1019E-TAP (human, UniProt Q8TEQ6 845-1508, D1019E); test: as above; settings: partners not purified
T2 construct: Vector pcDNA3-CTAP; source: HEK293, transfected, in soluble cell extract; purified by TAP
T2 sequence (looked up): T1 sequence (looked up) with C172R, D175E

G5_(845-1508)-L1367P-TAP = molecular target: T3, G5_(845-1508)-L1367P-TAP (human, UniProt Q8TEQ6 845-1508, L1367P); test: as above; settings: partners not purified
T3 construct: Vector pcDNA3-CTAP; Expressed at lower levels than the WT; also called RBS1 variant L1367P; source: HEK293, transfected, in soluble cell extract; purified by TAP
T3 sequence (looked up): T1 sequence (looked up) with C172R, L523P

G5_(845-1508)-R1016C-TAP [3] = molecular target: T1, G5_(845-1508)-R1016C-TAP; test: co-IP; G5_(845-1508)-TAP baits expressed 24 h in HEK293; complexes purified by TAP (IgG Sepharose, TEV protease, calmodulin); endogenous Gemin5 and bait detected by WB with anti-Gemin5; Gemin5 intensity normalised to the purified bait; settings: partners not purified
G5_(845-1508)-D1019E-TAP [4] = molecular target: T2, G5_(845-1508)-D1019E-TAP; test: as above; settings: partners not purified
[5] = molecular target: T4, G5_(845-1508)-A951E-TAP (human), Q8TEQ6; test: as above; settings: remark: other sources report otherwise
T4 chain: T1 sequence (looked up) with A107E, C172R

- ratio of peptide reads of region 1-844 to region 845-1508, relative to G5_(845-1508)-WT (G5_(845-1508)-R1016C-TAP [1]): 0.77
- ratio of peptide reads of region 1-844 to region 845-1508, relative to G5_(845-1508)-WT (G5_(845-1508)-D1019E-TAP [2]): 0.56
- ratio of peptide reads of region 1-844 to region 845-1508, relative to G5_(845-1508)-WT (G5_(845-1508)-L1367P-TAP): 0.9
- co-IP intensity relative to the WT protein (G5_(845-1508)-R1016C-TAP [3]): 58%
- co-IP intensity relative to the WT protein (G5_(845-1508)-D1019E-TAP [4]): 62%
- fold by which the recruitment by WT exceeds that by this mutant [5]: 10 fold
B1: endogenous Gemin5 protein (natural protein, human (endogenous in HEK293), UniProt Q8TEQ6 1-1508, looked up)
chain: MGQEPRTLPPSPNWYCARCSDAVPGGLFGFAARTSVFLVRVGPGAGESPGTPPFRVIGELVGHTERVSGFTFSHHPGQYNLCATSSDDGTVKIWDVETKTVVTEHALHQHTISTLHWSPRVKDLIVSGDEKGVVFCYWFNRNDSQHLFIEPRTIFCLTCSPHHEDLVAIGYKDGIVVIIDISKKGEVIHRLRGHDDEIHSIAWCPLPGEDCLSINQEETSEEAEITNGNAVAQAPVTKGCYLATGSKDQTIRIWSCSRGRGVMILKLPFLKRRGGGIDPTVKERLWLTLHWPSNQPTQLVSSCFGGELLQWDLTQSWRRKYTLFSASSEGQNHSRIVFNLCPLQTEDDKQLLLSTSMDRDVKCWDIATLECSWTLPSLGGFAYSLAFSSVDIGSLAIGVGDGMIRVWNTLSIKNNYDVKNFWQGVKSKVTALCWHPTKEGCLAFGTDDGKVGLYDTYSNKPPQISSTYHKKTVYTLAWGPPVPPMSLGGEGDRPSLALYSCGGEGIVLQHNPWKLSGEAFDINKLIRDTNSIKYKLPVHTEISWKADGKIMALGNEDGSIEIFQIPNLKLICTIQQHHKLVNTISWHHEHGSQPELSYLMASGSNNAVIYVHNLKTVIESSPESPVTITEPYRTLSGHTAKITSVAWSPHHDGRLVSASYDGTAQVWDALREEPLCNFRGHRGRLLCVAWSPLDPDCIYSGADDFCVHKWLTSMQDHSRPPQGKKSIELEKKRLSQPKAKPKKKKKPTLRTPVKLESIDGNEEESMKENSGPVENGVSDQEGEEQAREPELPCGLAPAVSREPVICTPVSSGFEKSKVTINNKVILLKKEPPKEKPETLIKKRKARSLLPLSTSLDHRSKEELHQDCLVLATAKHSRELNEDVSADVEERFHLGLFTDRATLYRMIDIEGKGHLENGHPELFHQLMLWKGDLKGVLQTAAERGELTDNLVAMAPAAGYHVWLWAVEAFAKQLCFQDQYVKAASHLLSIHKVYEAVELLKSNHFYREAIAIAKARLRPEDPVLKDLYLSWGTVLERDGHYAVAAKCYLGATCAYDAAKVLAKKGDAASLRTAAELAAIVGEDELSASLALRCAQELLLANNWVGAQEALQLHESLQGQRLVFCLLELLSRHLEEKQLSEGKSSSSYHTWNTGTEGPFVERVTAVWKSIFSLDTPEQYQEAFQKLQNIKYPSATNNTPAKQLLLHICHDLTLAVLSQQMASWDEAVQALLRAVVRSYDSGSFTIMQEVYSAFLPDGCDHLRDKLGDHQSPATPAFKSLEAFFLYGRLYEFWWSLSRPCPNSSVWVRAGHRTLSVEPSQQLDTASTEETDPETSQPEPNRPSELDLRLTEEGERMLSTFKELFSEKHASLQNSQRTVAEVQETLAEMIRQHQKSQLCKSTANGPDKNEPEVEAEQPLCSSQSQCKEEKNEPLSLPELTKRLTEANQRMAKFPESIKAWPFPDVLECCLVLLLIRSHFPGCLAQEMQQQAQELLQKYGNTKTYRRHCQTFCM
notes: Gemin5, human, full-length endogenous protein of HEK293 cells; also called full-length Gemin5; source: endogenous, HEK293 soluble cell extract
